# Test: label from the status in PepcDB records
# 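Further: failed if final PepcDB status was selected cloned or expressed and not failed if soluble or beyond.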
row,Sequence,protein production
1,MFLHSVNLWNLAFYVFMVFLATLGLWDVFFGFEENKCSMSYMFEYPEYQKIELPKKLAKRYPAYELYLYGEGSYAEEHKILPLTGIPVLFLPGNAGSYKQVRSIGSIALRKAEDIDFKYHFDFFSVNFNEELVALYGGSLQKQTKFVHECIKTILKLYKGQEFAPKSVAIIGHSMGGLVARALLTLKNFKHDLINLLITQATPHVAPVMPLDRFITDFYTTVNNYWILNARHINLTTLSVAGGFRDYQVRSGLTFLPKLSHHTSALSVVSSAVPKTWVSTDHLSIVWCKQLQLTTVRAFFDLIDADTKQITQNSKKKLSVLYHHFIRHPSKHFEENPAIISDLTGTSMWVLVKVSKWTYVAYNESEKIYFTFPLENHRKIYTHVYCQSTMLDTNSWIFACINSTSMCLQGVDLSWKAELLPTIKYLTLRLQDYPSLSHLVVYVPSVRGSKFVVDCEFFKKEKRYIQLPVTHLFSFGLSSRKVVLNTNGLYYNLELLNFGQIYQAFKINVVSKCSAVKEEITSIYRLHIPWSYEDSLTIAQAPSSTEISLKLHIAQPENNTHVALFKMYTSSDCRYEVTVKTSFSQILGQVVRFHGGALPAYVVSNILLAYRGQLYSLFSTGCCLEYATMLDKEAKPYKVDPFVIIIKFLLGYKWFKELWDVLLLPELDAVILTCQSMCFPLISLILFLFGTCTAYWSGLLSSASVRLLSSLWLALKRPSELPKDIKMISPDLPFLTIVLIIVSWTTCGALAILLSYLYYVFKVVHLQASLTTFKNSQPVNPKHSRRSEKKSNHHKDSSIHHLRLSANDAEDSLRMHSTVINLLTWIVLLSMPSLIYWLKNLRYYFKLNPDPCKPLAFILIPTMAILGNTYTVSIKSSKLLKTTSQFPLPLAVGVIAFGSAHLYRLPCFVFIPLLLHALCNFM,failed
2,MDASTSFAILPSNVKQKTAFPRKINQVKTASWANNCLTGTLDVGHFSCYFVNEKIARVTVNPFGEADLTPSIAAINDTEKQAAVFTETNDHYELQFADKKLIVSKNPFQIIMKQAGKTIFQTEGLAINRDKEHQISIQSKPGTAIFGLGEKTGALNKAGSIISMWNTDVYSPHNKDTVELYQSIPFMIADTEETTYGLFYDNSHRTEFDFQSFEEMYTILAEGGQANLYVIFGEDVKEVVANYTNLTGKTPLPPKWSLGYHQSRYSYTSEEEVERIANTFKEKEIPLDCVFMDIHYMDDFRVFTFNPDTFPNGPELIARLREQNIDVVPIVDPGIKKDVNYSVYQEGIKHHYFCRKLEGAIYYGDVWPGVSAFPDFLSTTVQRWWGDLHQFYTDLGIRGIWNDMNEPSVFNESKTMDLDVVHNMDGKNVTHKEAHNLYGLYMSKATFEGLKRLVPNERPFSLTRAGYAGVQRYSAVWTGDNRSHWEHLEMSLPMIMNLGLSGVAFTGADVGGFSSDCTKEMLIRWTQAGAFLPYFRNHCVQDSIYQEPWAFGLDAEKIVKKYIEMRYTFLPYIYTEFQKTAENGLPIVRPLYMEFKEERDLIQVNDQFMLGENILVAPIVREGQVKRLVRLPKGTWFNYWTKEQVEGGDYIIADAPIDVMPIYIKAGTILPLGTSVQNTKEAQDLALEIYLDNDEASGYVYNDDGKSYQYESGKISKTAFTATFKNGEVQINGDHHGEENLQQKVTTIEVFGKKIDKITRAGI,failed
3,MELLRPEATVLSLGRRVLSFDREGRPYHYFREGKTYKRALDGSLHLRYREGERRRRRLAPEEALGVYQEVLDLAEAHLRDERRREEVLRWTPEGLLDPTPYRRAYAWPVSILPPDAYLSVVLQATTGCTWNRCAFCSFYQDRPFQKRTPEAFREHIQAVLALLGRGRLLRRGVFLADGNALALSEPLLPLLELVRAHFPGEPVMGFLDLFTGLKKAPSWWERLGGMGLRRVYIGLETGHAPLLALLRKPGHPKEVLPLVRALKAAGLSVGVILMVGAGGKAFAEAHFRESLALLAELPLGRGDVVYLSPFREDPGTPYAALGLAPLEDLEGELQRWAQAVRRLGLRASRYEIREFLY,failed
4,MPLASGQVFAGFTIVRLVGTGGMGEVYLAKHPRLPREDALKVLPISVSADDEFRQRFIREADMAATLWHPHIVGVHDRGEFEGRLWISMDYVDGHDAARLLHDKYPKGMPADDVVEIVTAVGDALDYAHQRQLLHRDVKPANILVTEKHGTKRRIMLTDFGIARRTDDVNGLTSTNITVGSMSYTSPEQLMGQPLDGRADQYSLAATAYRLLTGAPPFSHSNPAVVISHHLNSPPPKLGDTKPALAKLDSVMAKALAKDAKDRFDTCHDFAVALAEANKGDESAAPVTAAPPPVITPPVQTAPPTTPLKAQTLPAPPTPPTPLSPSNPQAPTASQPPVFTSSWAGHDDPSGRQPVAVPAPAPPPPPPPSNFGPPPPAYSPPPRKSGGDRRKLIIAAAAIGAVVLLVGGITLAVTSGGDNDSAGAAATTSETASETPVTTTPKKPGEHAYTIADYIRDNKISETPVHRGDPNTPELTMPTPPGWADAGTRTPAWAYSAIVNDPASPTDPPSVISLISKLDGNVDPEKLLEFAPNELQNLTEWEPIGGVTRSNLSGFPSVQLGGSYLKDGKRRAITQKTVVVDIPSGIYVLQINADSLYRDFGALVDVNKAIDKEATIKP,failed
5,MITTKLKLSVTNDYLLRINENRYVLIDTGYKEDWKLFLKRLKENGIKINEISYVILTHHHDDHVGFLNKLVSENKDIRVVMSDKTNELIKVGENDQTHGGGLINKRIEFLIRYKNMYVSKVLGVKKENNLKFPPYESRNNDIIFTGEVTLRELGIDLPGKIIETPGHTIDSISILFEDGDCFVGDAAANMLKLCGTKNCVIFIMDKKQYYESWDKMIKVGVKKVYPAHGGEFSVGRLKKNIWRNL,failed
6,MAYSPSLNDIKSILNKYTSKDYELKCENRYDGKLELWLKGVFEEIVKTPGTRYVTHKQLDEKLKNFVTKTEFKEFQTVVMESFAVQNQNIDAQGEQIKELQVEQKAQGKTLQLILEALQGINKRLDNLESK,failed
7,MEKKVGTDRVKRGMAQMQKGGVIMDVVNAEQAKIAEEAGAVAVMALERVPSDIRAAGGVARMADPRIVEEVMNAVSIPVMAKARIGHITEARVLEAMGVDYIDESEVLTPADDEFHLLKSDFTVPFVCGCRDIGEALRRIGEGAAMLRTKGEPGTGNIVEAVRHMRQVNGQIRQIASMTDDELMVAAKNFGAPYELVKEIKTLGKLPVVNFAAGGVATPADAALMMELGADGVFVGSGIFKSDNPAKFASAIVQATTYYTDYELIGKLSKELGSPMKGIEMSRLNPEDRMQDRSF,failed
8,MTTPLSPEATPPHGDLASGNVTRRILGIVVFNFIAYLSVGLPIAVVPGFVHGDLGYSAVLAGLAVSIQYLATLLSRPWAGSLCDMKGPKRSVLTGLLLCAGSGLLMLVAAQFAGNDWLALGWLLSSRLMLGAGESLVTTGTIAWGIGSVGARHTAKVISWNGVTTYGALAVGAPVGVLLAGHGGLTAIGIVTSVIAGASWLLARRQAAVPILKGERLPFRSVFRAMSPFGLCLGLGSVGFGAITAFITLYYAGHGWDHAALALTALGTCFVLTRLIMADSITRFGGYPVALVSFAVEAAGLAMLWLAQAPWQALAGAAVVGFGFSLVFPSLGIEAVKRVPATNRGSALGAYALFFDFSLGLTGPVAGLITKHAGYPAVYLFAALAAVLALVLSQVLAARYRDRLAPAT,failed
9,VNPLLDSLQPYPFEKLRALFKDVTPNAGLAHISFGIGEPKHPTPALIRDAVVASLGGLSAYPATSGSPALRESIAKWVTQRYNLPPVDPATQVLPVSGSREALFSLAQTVLDPQKNAGGEPAIVLCPNPFYQIYEGAAILAGAQPYFVNSDPARNFACDYSAVPAEIWARTQLLYVCSPGNPTGAVLTLDDWRELFALSDRYGFVIASDECYSEIYFDEAKPPLGGLEAAHKLGRGFERLVMLSSLSKRSNVPGMRSGFVAGDAAILKDFLLYRTYHGAALSTVFQNASIAAWNDEAHVRENRAKYLQKFSTVTPMLAEVLDVRLPDAAFYLWADVSRTGLTDTVFAQRLYADYNVTVLPGSFLARTAHGVNPGRNFVRMALVADVDECTQGAQRIVDFCRALAG,not failed
10,TEASSLVGKLETDVEIKASADKFHHMFAGKPHHVSKASPGNIQGCDLHEGDWGTVGSIVFWNYVHDGEAKVAKERIEAVEPDKNLITFRVIEGDLMKEYKSFLLTIQVTPKPGGPGSIVHWHLEYEKISEEVAHPETLLQFCVEVSKEIDEHLLAEE,not failed
11,MSLTQIVNPIIYPSRTIPRRFTAISPFKTLSPQFSRHPPHALSRRLFLPSVSSIWDAITGGGDSNPREAIAAVRRGMQLFRQGDVAGSVAEFDRAIILDPRQKAYLWQRGLSLYYVDRFEEGAEQFRIDVAQNPNDTEESIWCFICEARLHGVDVARTQFLEVGRDSRPVMREAYNLFKNGGDPEKLVNDFSSGQASEYFYASLYAGLYYEAEGKSENAKFHLTAACGSPYGQRSDDYMASLAKVHCLCRNWSSGIL,failed
12,MSTKELLFSFHGRIDRKTYWIWNVIYYISIIGFGAGISKLFPAFSYLLLPIFLLVLLIPDLAITTKRWHDRDKSIYWLGLNIPLVIGRIATPMTSPMAQEPSTPQLFIASISLICGLWILIECGFLKGTSGPNKYGPEPQ,not failed
13,MGRKNSPSERERELQNLIAQYEAVKAKNESLYLDGDQLADIADLYASERKFKEAQEVITYGLGLHPGHTDLMVEQAYLFLDLNQPQKAKEVAELITDTYSSNVKLLLAELLLNEGKLDAADQMLDSIEEEEKNDLGILVDIVYLYTDLGYPEKGVQWLKRGAEMYKDDEDFLAATADCYGAAGAEYIEQAIVVFNKLIDKNPYNPAYWVGLAKCQFATKDFDKAIESCDFAIAADEEFGEAHIIKAHSLFHLENIEGAIVEYRKALKYKTLSPEFTYMFIGLAYTQQENWAEANESYSMALRAIEENGNGSSPLLSDIYSNKALCASRQGDSEEAHRLCRLAKELAPQDAEPYLLEGRIYMEEDNFDLARAEWALALRYAPEADTWMEIGNYSLEFRMLENARFCFEQVLEEDPEYPKICEQLAAVCLVLQDHEGFKKYNAMSGDSINLDSLRDTILEMGVDGEQMLRELDDFLKDEK,failed
14,MPETMHDNALTQSCTLVTSPELGTMHAMPTYIATKNGEPTAIAIESIAPDGYNGEIKVITGIDNQGKILGTRVLSHQETPGLGDKIDLRVTSWILGFTGKQVTEDNWNSWKVRKDGGDFDQFTGATITPRAVIKAVRNTVNYVNQSRDEILSQPLEHHHHHH,not failed
15,TSIRQGASNVICAYRRDEENMPGSRREVKNAKEEGVKFMFNLQPLGIEVDAYGKVSGVKVVKTALGEPDDAGRRRPEPVEGSEHVLPADAVIMAFGFQPHQMDWLTPFNVELDQWGRIKAPNNQEFQYQTSNEKIFAGGDAVRGSDLVVTAIDEGRKAAEGILDYLDV,failed
16,MLKKLFAPPQKRERLSAEEIKHKYPRYRVQVLISIFVGYMGYYFVRNTTSILSGILNMSATEIGIITCASYIAYGLSKFISGLISDESNSKIFLPVGLFLTGLVNVLIGVIPSVITSIWLFTIMYLINGWLQGMGYPPGARTLVYWYDNKERIKYATIWNLSHNFGGAIAPILTGVGLALAGNDSLNQARAAYWFPGVVACLLAVLVYFLQEDTPESIGLPPIEEYHKEQYTNVVDSSDILEEPEVLGMGEIIKKYILPNTKLMWASLYSIFVYILRYGIVSWTPKFLATSVQDGGKGITATAGMGGFSLFEIGGIIGMLTAGYLSAKVFKNSKPLTNVAFLVVAILLLAAYWFIPAGPQYMALDFIILLGLGASIYGPVMMVGLYAMELVPKAAAGAASGLTGTFSYVGGATIATLAIGIIIDHFGWGVAFIIFGISGFAAIVCTLLSRDKSLEYW,failed
17,MATPAYMSITGTKQGLITAGAFTADSVGNTYQEGHEDQVMVQGFSHELIIPRDPQSGQPTGQRVHKPVKITKVFDKSSPLLLAALTSGERLTEITIQWYRTSAAGTQEHYYTTKLEDAIIVDIKDYMHNCQDPANAHFTHLEDVEFTYRKITWTHEVSGTSGSDDWRSPVAG,not failed
18,MNGYIINIRYQQMGRVIYMFFFAIFGIQDKNKHIGNCNNIVCPSCGRLSMYEVYKYYKYFHIFFLPIFKWDVRYIVKTSCCGCLYELDPLVGKEFEKNPSTEIREENLQRIDRYSPFKYCSNCRTEVPVEYSYCPYCGERLLEHHHHHH,failed

# Source: a protein production outcome set (Wang et al. 2014)
